The source of these data is patent US20190031760A1 (Hoffmann-La Roche, published 2019).

A word on the Kd: it is a measure of binding affinity in units of concentration. Read a low Kd as a tighter complex. One may read the koff as the rate constant with which the complex falls apart. A low value points to slow dissociation. As usually defined, the kon is a measure of how fast the partners come together. Lower therefore signals slow association.

Assay [1] deals with T1, human ASGPR H1 on ASGPR-positive hepatic cells (HepG2, primary human hepatocytes, Huh-7) (human, UniProt P07306 1-291).
T1 construct: whole, on cells; Endogenous receptor on cells; the antibodies were selected on H1; also called surface-exposed ASGPR
T1 sequence (looked up): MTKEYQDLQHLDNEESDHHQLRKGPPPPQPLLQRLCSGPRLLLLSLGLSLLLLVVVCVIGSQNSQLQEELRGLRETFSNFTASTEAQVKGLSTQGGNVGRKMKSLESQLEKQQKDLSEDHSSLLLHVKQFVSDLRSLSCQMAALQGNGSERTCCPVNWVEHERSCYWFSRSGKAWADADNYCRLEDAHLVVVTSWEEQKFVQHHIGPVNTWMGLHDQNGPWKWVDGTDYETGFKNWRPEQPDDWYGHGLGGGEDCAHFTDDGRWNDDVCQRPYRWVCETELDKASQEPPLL
The assay is described as follows: FACS on HepG2 cells, human IgG1 at 30 µg/ml, 30 min at 4°C, FITC anti-human IgG Fc secondary F(ab')2.

For assay [2], the target named is T2, avi-Fc-human ASGPR H1 CRD (human, UniProt P0DOX5 223-449 = IgG part, biotinylated at the N-terminal Avi tag).
T2 construct: also called Fc-CRD; hu/cyASGPR H1 CRD
The assay can be described thus: SPR (ProteOn XPR36), antigen captured by neutravidin, antibody construct as analyte.

The target of assay [3] is T1, human ASGPR H1 on ASGPR-positive …. The assay can be described thus: FACS on HepG2 cells, antibody 1.25, 6 and 30 µg/ml without or with Alexa488 asialofetuin (100 µg/ml), APC anti-human IgG Fc detection.
Assay [4] has as its target T3, avi-Fc-human ASGPR H1 stalk CRD (human, biotinylated at the N-terminal Avi tag).
T3 construct: Homodimeric (bivalent) Fc fusion of the human ASGPR H1 ECD (stalk and CRD); also called huASGPR H1 stalk CRD; Fc-stalk-CRD
The assay is described as follows: SPR (ProteOn XPR36), antigen captured by neutravidin, Fab as analyte.

The target of assay [5] is T4, avi-Fc-human ASGPR H1 stalk (human, biotinylated at the N-terminal Avi tag).
T4 construct: Homodimeric Fc fusion (wild type Fc); also called huASGPR H1 stalk; Fc-stalk
The description is as above.

The target of assay [6] is T5, avi-Fc-human CLEC10A stalk CRD (human, biotinylated at the N-terminal Avi tag).
T5 construct: Homodimeric Fc fusion of the human CLEC10A ECD, closest homologue of ASGPR H1, used as specificity control; also called huCLEC10A stalk CRD
Described as above.

The target of assay [7] is T6, avi-Fc-cynomolgus ASGPR H1 stalk (cynomolgus, biotinylated at the N-terminal Avi tag).
T6 construct: Homodimeric Fc fusion (wild type Fc); also called cyASGPR H1 stalk
The assay is described as above.

For assay [8], the target named is T7, full-length human ASGPR H1 with a C-terminal SNAP tag, on transfected HEK293 cells (human, UniProt P07306 1-291, SNAP tag labeled with SNAP-Lumi4Tb (terbium)).
T7 construct: whole, on cells; Transiently expressed in HEK293 cells for the FRET assay; also called transmembrane ASGPR H1-SNAP tag fusion protein labeled with terbium
T7 sequence (looked up): T1 sequence (looked up)
The assay is described as follows: FRET on HEK293 cells expressing terbium-labeled ASGPR H1-SNAP; IgG1 at 50-0.39 nM, anti-humanFc-d2 as acceptor.

Assay [9] concerns the target T1, human ASGPR H1 on ASGPR-positive …. The assay can be described thus: FACS on HepG2 cells, FITC-labeled IgG 30 µg/ml bound at 4°C, washed, then 37°C for up to 120 min; PE anti-Fc detection of surface antibody.
Assay [10] has the same target. The assay can be described thus: FACS on HepG2 cells, human IgG1 in a dilution row up to 20 µg/ml, 30 min at 4°C, FITC anti-human IgG Fc secondary.
For assay [11] the target is unchanged. The assay is described as follows: FACS on HepG2 cells, human IgG1 at 0.01 to 10 µg/ml.

Where a chain is given by its changes, count along the chain named.

T6 sequence (chain, as listed by the source limits assumed): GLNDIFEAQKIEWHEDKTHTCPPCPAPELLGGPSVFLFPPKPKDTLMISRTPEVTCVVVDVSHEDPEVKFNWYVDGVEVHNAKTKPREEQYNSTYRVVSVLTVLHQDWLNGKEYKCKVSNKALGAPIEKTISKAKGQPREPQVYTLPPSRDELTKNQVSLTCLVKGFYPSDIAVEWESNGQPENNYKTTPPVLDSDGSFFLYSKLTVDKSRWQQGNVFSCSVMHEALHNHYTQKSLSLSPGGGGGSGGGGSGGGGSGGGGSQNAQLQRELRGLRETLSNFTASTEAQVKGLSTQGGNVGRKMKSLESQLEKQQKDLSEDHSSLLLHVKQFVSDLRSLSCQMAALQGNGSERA
T4 sequence (chain, as listed by the source limits assumed): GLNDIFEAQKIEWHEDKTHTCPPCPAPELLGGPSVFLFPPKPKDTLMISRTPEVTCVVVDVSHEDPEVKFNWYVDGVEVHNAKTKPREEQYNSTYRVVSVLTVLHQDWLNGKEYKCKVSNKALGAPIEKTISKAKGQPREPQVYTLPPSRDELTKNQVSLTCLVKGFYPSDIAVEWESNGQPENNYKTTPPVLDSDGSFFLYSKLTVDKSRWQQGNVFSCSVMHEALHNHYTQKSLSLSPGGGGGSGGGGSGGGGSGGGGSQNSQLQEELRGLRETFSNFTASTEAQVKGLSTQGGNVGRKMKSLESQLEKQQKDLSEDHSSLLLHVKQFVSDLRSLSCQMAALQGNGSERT
T5 sequence (chain, as listed by the source limits assumed): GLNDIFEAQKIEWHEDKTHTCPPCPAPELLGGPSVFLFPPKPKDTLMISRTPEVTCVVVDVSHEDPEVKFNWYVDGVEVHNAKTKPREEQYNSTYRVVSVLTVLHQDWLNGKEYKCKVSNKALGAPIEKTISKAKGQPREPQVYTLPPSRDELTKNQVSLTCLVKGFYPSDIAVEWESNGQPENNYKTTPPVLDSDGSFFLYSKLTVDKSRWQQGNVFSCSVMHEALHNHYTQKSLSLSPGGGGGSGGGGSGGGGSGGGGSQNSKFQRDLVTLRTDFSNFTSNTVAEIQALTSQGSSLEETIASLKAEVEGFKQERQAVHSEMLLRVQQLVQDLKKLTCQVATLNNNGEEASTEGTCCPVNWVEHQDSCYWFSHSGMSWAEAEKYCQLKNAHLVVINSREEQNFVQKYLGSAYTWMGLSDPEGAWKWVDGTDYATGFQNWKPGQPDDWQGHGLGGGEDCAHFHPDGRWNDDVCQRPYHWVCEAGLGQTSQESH

B1: ASGPR 5A4 (antibody, V domains shown)
VH: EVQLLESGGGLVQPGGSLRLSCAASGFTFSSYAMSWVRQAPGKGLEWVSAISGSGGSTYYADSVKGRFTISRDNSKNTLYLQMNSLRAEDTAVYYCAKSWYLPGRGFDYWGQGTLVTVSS
VL: SSELTQDPAVSVALGQTVRITCQGDSLRSYYASWYQQKPGQAPVLVIYGKNNRPSGIPDRFSGSSSGNTASLTITGAQAEDEADYYCNSRLRSGKMVVFGGGTKLTVL
notes: the list has only its Fab and its IgG-IFNα conjugate; also called 5A4 IgG; 5A4 human IgG1 antibody
B1: in [1], the binding result is reported as “binds”.

B2: 52C4 IgG (antibody, V domains shown)
VH: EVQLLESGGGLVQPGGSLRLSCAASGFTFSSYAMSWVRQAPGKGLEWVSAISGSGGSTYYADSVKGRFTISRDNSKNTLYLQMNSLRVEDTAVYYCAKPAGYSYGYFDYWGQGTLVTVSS
VL: B1 VL with R90G, L91A, R92S, K95N, M96Q, V97L
notes: also called 52C4 human IgG1 antibody
On to B2, for which, in assay [2], the affinity, expressed as Kd, was 0.89 nM; the koff stood at 0.000499 s⁻¹; the kon was determined as 557000 M⁻¹ s⁻¹. Further, the binding result in [3] is given as “binds”.

B3: 5A4 Fab (Fab, V domains shown)
VH: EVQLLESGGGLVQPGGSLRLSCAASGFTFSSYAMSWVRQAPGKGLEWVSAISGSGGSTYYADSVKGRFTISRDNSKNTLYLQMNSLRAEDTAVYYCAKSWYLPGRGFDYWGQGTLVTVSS
VL: B1 VL
notes: Human lambda Fab from E. coli
In the case of B3, the binding result in [4] was “no binding”. In assay [5], this molecule registered a dissociation constant (Kd) of 4.3 nM, a koff of 0.00105 s⁻¹ and an on-rate (kon) of 244000 M⁻¹ s⁻¹. Besides, the binding result in assay [6] is recorded as “no binding”. In [7], this molecule showed a Kd of 3.76 nM, a koff of 0.0014 s⁻¹ and a kon of 372000 M⁻¹ s⁻¹.

B4: R5C2 IgG (antibody, V domains shown)
VH: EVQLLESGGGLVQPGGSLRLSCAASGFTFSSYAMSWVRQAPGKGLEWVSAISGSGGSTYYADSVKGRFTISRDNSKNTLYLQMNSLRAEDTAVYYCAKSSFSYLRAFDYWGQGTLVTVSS
VL: SSELTQDPAVSVALGQTVRITCQGDSLRSYYASWYQQKPGQAPVLVIYGRNNRPSGIPDRFSGSSSGNTASLTITGAQAEDEADYYCNSRDRRGYSVFGGGTKLTVL
notes: also called R5C2 human IgG1 antibody
Regarding B4, binding in assay [8] was characterised by a dissociation constant (Kd) of 5.9 nM.

B5: R9E10 IgG (antibody, V domains shown)
VH: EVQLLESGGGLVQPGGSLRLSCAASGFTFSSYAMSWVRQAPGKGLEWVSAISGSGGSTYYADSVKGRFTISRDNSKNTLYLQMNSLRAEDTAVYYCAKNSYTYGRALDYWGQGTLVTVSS
VL: B4 VL with R50K, D91N, R92V, Y95K, S96L
notes: also called R9E10 human IgG1 antibody
B5: the Kd in assay [8] was found to be 6.2 nM.

B6: 4F3 IgG (antibody, V domains shown)
VH: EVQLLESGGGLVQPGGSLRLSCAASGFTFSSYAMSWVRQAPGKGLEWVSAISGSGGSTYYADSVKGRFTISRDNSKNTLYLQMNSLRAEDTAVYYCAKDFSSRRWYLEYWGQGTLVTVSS
VL: SSELTQDPAVSVALGQTVRITCQGDSLRSYYASWYQQKPGQAPVLVIYGKNNRPSGIPDRFSGSSSGNTASLTITGAQAEDEADYYCNSLERIGYLSYVFGGGTKLTVL
notes: also called 4F3 human IgG1 antibody; clone 4F3
Consider B6, for which binding in assay [8] was put at a Kd of 4.5 nM.

B7: 51A12 IgG (antibody, V domains shown)
VH: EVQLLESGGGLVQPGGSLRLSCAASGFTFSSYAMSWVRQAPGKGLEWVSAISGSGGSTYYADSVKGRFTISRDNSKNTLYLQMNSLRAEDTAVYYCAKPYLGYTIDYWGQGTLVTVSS
VL: SSELTQDPAVSVALGQTVRITCQGDSLRSYYASWYQQKPGQAPVLVIYGKNNRPSGIPDRFSASSSGNTASLTITGAQAEDEADYYCNSRDICCNRSVRNFGGGTKLTVL
notes: also called 51A12 human IgG1 antibody; clone 51A12 IgG
As for B7, in assay [2], the Kd was determined as 0.21 nM, the koff is 7.34e-05 s⁻¹ and the kon came to 350000 M⁻¹ s⁻¹. Moreover, in [8], the Kd came to 200 nM.

B8: 51A12_E7 human IgG1 antibody (antibody, V domains shown)
VH: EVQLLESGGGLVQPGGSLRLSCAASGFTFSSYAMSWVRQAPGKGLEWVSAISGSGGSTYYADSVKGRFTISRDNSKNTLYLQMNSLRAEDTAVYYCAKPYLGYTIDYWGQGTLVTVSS
VL: B7 VL with A63G, I92Y, C93R, C94Y, S97A, N100P
notes: also called 51A12_E7 IgG1-converted antibody
B8: the binding result in [9] was “binds”.

B9: 51A12_H6 human IgG1 antibody (antibody, V domains shown)
VH: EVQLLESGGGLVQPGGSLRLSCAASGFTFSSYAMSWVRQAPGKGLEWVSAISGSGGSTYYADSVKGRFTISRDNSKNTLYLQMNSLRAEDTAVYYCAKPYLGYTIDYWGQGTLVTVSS
VL: B7 VL with A63G, I92Y, C93K, C94W, S97V, N100H
notes: also called 51A12_H6 IgG1-converted antibody
Take B9: the binding result in assay [10] is “binds”.

B10: 51A12_C7 human IgG1 antibody (antibody, V domains shown)
VH: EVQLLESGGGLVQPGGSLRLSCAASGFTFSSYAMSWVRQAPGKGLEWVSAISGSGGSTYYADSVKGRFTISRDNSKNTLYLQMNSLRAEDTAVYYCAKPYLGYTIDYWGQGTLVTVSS
VL: B7 VL with A63G, C93R, C94Y, S97V, N100P
notes: also called 51A12_C7 IgG1-converted antibody
Regarding B10, the binding result in assay [9] is on record as “binds”.

B11: 51A12_A6 human IgG1 antibody (antibody, V domains shown)
VH: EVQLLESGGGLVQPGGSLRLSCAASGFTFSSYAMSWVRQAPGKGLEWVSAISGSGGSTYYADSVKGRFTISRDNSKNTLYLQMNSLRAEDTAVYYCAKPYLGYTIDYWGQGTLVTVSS
VL: B7 VL with A63G, D91T, I92Y, C93S, C94Y, S97A
notes: also called 51A12_A6 IgG1-converted antibody
B11: the binding result in assay [10] is on record as “binds”.

B12: 51A12_C1 human IgG1 antibody (antibody, V domains shown)
VH: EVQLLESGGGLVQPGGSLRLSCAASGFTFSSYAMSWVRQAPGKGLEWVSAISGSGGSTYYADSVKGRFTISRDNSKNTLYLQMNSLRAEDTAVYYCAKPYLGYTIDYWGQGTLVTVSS
VL: B7 VL with A63G, D91S, I92Y, C93A, C94F, S97V
notes: also called 51A12_C1 IgG1-converted antibody
Consider B12, for which the binding result in [9] is “binds”.

B13: 51A12_D1 human IgG1 antibody (antibody, V domains shown)
VH: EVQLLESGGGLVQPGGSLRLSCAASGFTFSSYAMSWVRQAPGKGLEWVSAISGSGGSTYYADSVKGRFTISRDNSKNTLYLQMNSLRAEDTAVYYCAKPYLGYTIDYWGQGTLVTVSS
VL: B7 VL with A63G, D91T, I92Y, C93S, C94Y, S97A, N100P
notes: also called 51A12_D1 IgG1-converted antibody
For the molecule B13, in [11], the binding result is “binds”.

B14: 51A12_H3 human IgG1 antibody (antibody, V domains shown)
VH: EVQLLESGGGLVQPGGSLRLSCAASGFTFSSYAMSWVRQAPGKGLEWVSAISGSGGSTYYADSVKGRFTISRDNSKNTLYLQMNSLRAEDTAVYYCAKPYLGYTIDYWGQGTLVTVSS
VL: B7 VL with A63G, I92Y, C93K, C94F, S97V
notes: also called 51A12_H3 IgG1-converted antibody
With B14, in [10], the binding result was “binds”.
